One block for each binder: values may come before it. Ends that are not written are not given here.
Columns and labels:
Details in all cases: both partners purified
[1] = molecular target: T1, BCL6 BTB domain (BCL6 5-129, tag removed by HRV-3C protease) (human, UniProt P41182 5-129); assay: fluorescence polarisation; competition: 10 nM BCOR-AF633, 3 µM BCL6 BTB, unlabelled peptide varied; 20 mM Hepes/NaOH pH 8.0, 150 mM NaCl, 0.5 mM TCEP, 0.05% Tween 20, 1-2% DMSO; 2 h at room temperature
[2] = molecular target: T1, BCL6 BTB domain (BCL6 5-129, tag …); assay: fluorescence polarisation; direct binding of the BCOR-AF633 probe to BCL6 BTB, FP KD (Figure S1A)
[3] = molecular target: Trx-6His-HRV3C-BCL6 (Thioredoxin-6His-tagged BCL6 BTB, uncleaved) (human, UniProt P41182 5-129); assay: as above
[4] = molecular target: T2, BCL6 BTB domain (BCL6 5-129, tag removed by HRV-3C protease) (human, UniProt P41182 5-129); assay: thermal shift assay; 10 µM BCL6 BTB, Sypro Orange, sodium acetate pH 6, 100 mM NaCl, 0.5 mM TCEP; 200 µM BCOR control peptide
[5] = molecular target: T2, BCL6 BTB domain (BCL6 5-129, tag …); assay: fluorescence polarisation; competition: 10 nM BCOR-AF633, 3 µM BCL6 BTB, unlabelled peptide varied; 20 mM Hepes/NaOH pH 8.0, 150 mM NaCl, 0.5 mM TCEP, 0.05% Tween 20, 1-2% DMSO; 2 h at room temperature; remark: listed apart in the source

IC50 [1]: 16 ± 6 µM
B1: SMRT peptide (EGLVATVKEAGRSIHEIPR) (peptide)
peptide: EGLVATVKEAGRSIHEIPR
notes: also called SMRT control peptide; unlabelled SMRT peptide; source: synthetic peptide, bought: Pepceuticals Ltd

Kd [2]: 1700 ± 300 nM
Kd [3]: 1740 nM
B2: Alexa Fluor 633-conjugated BCOR peptide (RSEIISTAPSSWVVPGP-Cys(AF633)-amide) (peptide)
peptide: RSEIISTAPSSWVVPGPC(Alexa Fluor 633 C5 maleimide)-NH2
notes: added C-terminal cysteine that carries the dye; also called BCOR-AF633; BCOR-A633; source: synthetic peptide, bought: Cambridge Research Biochemicals

IC50 [5]: 13 ± 1 µM
B3: unlabelled BCOR peptide (17 residue BCOR peptide) (peptide)
chain: RSEIISTAPSSWVVPGP
modifications: Terminal capping of the unlabelled peptide is not printed. Limits come from the UniProt BCL6-interaction region 498-514, which is 17 residues and matches the printed probe RSEIISTAPSSWVVPGP without …
ΔTm with 200 µM peptide [4]: 6.5 °C
